In PMC7338525, “Insights into the structure and function of Est3 from the Hansenula polymorpha telomerase”:

Target: T1, HpEst3 (Hansenula polymorpha, UniProt W1QJK4 1-175)
T1 sequence: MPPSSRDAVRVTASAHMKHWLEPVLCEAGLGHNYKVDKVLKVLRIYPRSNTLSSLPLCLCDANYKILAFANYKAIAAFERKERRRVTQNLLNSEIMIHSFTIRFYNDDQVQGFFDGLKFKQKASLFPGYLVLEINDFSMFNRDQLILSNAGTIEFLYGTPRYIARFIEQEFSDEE
Test: NMR titration (15N-HpEst3); Est3:DNA up to 1:5; non-specific binding, signal broadening without shift changes; NMR: 100 mM KCl, 20 mM potassium phosphate pH 6.5, 0.02% NaN3, 3 mM DTT, 25 C; EMSA: 20 mM potassium phosphate pH 6.5, 100 mM KCl, 3 mM DTT, 8% native PAGE
Conditions: protein: recombinant

GGGTGGCGGGGTGGCGGGGTGGCGGGGTGGCG (ssDNA) [ssDNA G4 (four telomeric repeats)]
binding result: binds
